Results reported in patent US8993717B2, “Gadd45beta targeting agents” (Imperial Innovations Limited, priority 2009, dated 2015).
Square brackets hold non-standard residues; d marks the D form. Peptide text beside a SMILES is read from it. * marks the point of attachment. Fmoc = O=C(OCC1c2ccccc2-c2ccccc21)*; Myristoyl = CCCCCCCCCCCCCC(=O)*; ClZ = O=C(OCc1ccccc1Cl)*; Cbz = O=C(OCc1ccccc1)*; βAla = NCCC(=O)O

molecular target: T1, Gadd45β/MKK7 interaction (Homo sapiens, UniProt O14733); assay: ELISA competition assay of biotin-hGadd45β binding to coated GST-MKK7; conditions: Table I, initial Elisa screening; coated MKK7 42 nM, biotin-hGadd45β 21 nM; competitor 21 nM, sub-libraries 42 nM
T1 construct: The GST-fused full-length kinase was coated for 16 h at 4° C., at a concentration of 42 nM; made in house
T1 sequence (O14733 1-419): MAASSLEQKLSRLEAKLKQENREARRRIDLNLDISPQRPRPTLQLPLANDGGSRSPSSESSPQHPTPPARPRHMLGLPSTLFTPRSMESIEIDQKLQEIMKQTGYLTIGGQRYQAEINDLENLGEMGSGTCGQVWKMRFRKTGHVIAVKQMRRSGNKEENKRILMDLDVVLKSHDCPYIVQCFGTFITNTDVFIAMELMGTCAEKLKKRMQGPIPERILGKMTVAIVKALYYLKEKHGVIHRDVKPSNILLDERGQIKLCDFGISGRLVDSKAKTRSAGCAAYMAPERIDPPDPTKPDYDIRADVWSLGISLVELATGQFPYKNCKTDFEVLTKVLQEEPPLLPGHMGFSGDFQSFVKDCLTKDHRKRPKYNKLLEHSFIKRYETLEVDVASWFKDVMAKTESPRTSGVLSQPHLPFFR
Description: To evaluate the inhibitory properties of peptides, ELISA-based assays were performed. In these assays, a fusion protein of glutathione S-transferase (GST) and mitogen-activated protein kinase kinase 7 (MKK7) was coated onto wells of a 96-well plate, while biotinylated-hGadd45β was used in solution. hGadd45β was biotinylated using an EZ Link NHS-LC-biotin kit (Pierce, Rockford, Ill.), according to Tornatore et al. (Tornatore L., et al. (2008). J Mol Biol; 378:97-111).
Firstly, the association between Gadd45β and MKK7 was investigated by ELISA assays as also reported in Tornatore et al. (Tornatore L., et al. (2008). J Mol Biol; 378:97-111). The GST-fused full-length kinase was coated for 16 h at 4° C., at a concentration of 42 nM in buffer A (25 mM Tris pH 7.5, 150 mM NaCl, 1 mM DTT and 1 mM EDTA) into wells of a 96-well microliter plate. Some wells were filled with buffer alone and were used as blanks. After incubation for 16 h at 4° C., the solutions were removed and the wells were filled with 350 μL of a 1% (w/v) solution of NFDM (Non Fat Dry Milk) in PBS (phosphate buffered saline). The plate was incubated for 1 h at 37° C. in the dark. After washing with buffer T-PBS (PBS with 0.004% (v/v) Tween detergent), the wells were filled with 100 μL of biotinylated-hGadd45β at concentrations ranging from 8.4 nM to 168 nM. Each data point was performed in triplicate. Following incubation for 1 hr in the dark at 37° C. the solutions were removed and the wells were again washed with T-PBS. Then 100 μL of a 1:10,000 dilution of horseradish peroxidase-conjugated streptavidin dissolved in buffer was added to each well and the plate incubated for 1 hr at 37° C. in the dark. After removal of the enzyme solution and washing, 100 μL of the chromogenic substrate o-phenylendiamine (0.4 mg/mL in 50 mM sodium phosphate-citrate buffer, containing 0.4 mg/mL of urea in hydrogen peroxide) was added and the colour was allowed to develop in the dark for 5 min. The reaction was stopped by adding 50 μL of 2.5 M H2SO4. The absorbance at 490 nm was measured in all wells and the values were averaged after subtracting the corresponding blanks. Bound protein was then detected as described above. The molar concentration of biotinylated-hGadd45β at which the half-maximal ELISA signal is detected corresponds to the dissociation constant (KD) (Friguet B, Chaffotte A F, Djavadi-Ohaniance L, Goldberg M E. J Immunol Methods. 1985 Mar. 18; 77 (2):305-19). Binding competition assays were performed by coating GST-MKK7 at 42 nM as described, a concentration of biotinylated-hGadd45β of 21 nM (pre-saturation conditions 1:0.5 mol/mol ratio) and, in a first test, using competitors at 21 nM. The binding of biotinylated hGadd45β to GST-MKK7 was analyzed in the presence of increasing amounts of competitor peptide (concentrations ranging from 0.01 nM to 100 nM), and the values obtained with the competitor were expressed as the percentage of the binding detected in the absence of competitor. […] According to the convention adopted in the table “L-Xaa” and “D-Xaa” refer to the L and D forms of amino acid Xaa.
A simplified combinatorial peptide library (Marasco et al. 2008, Curr. Protein Pept. Sci. 9:447-67) was screened for antagonists of the Gadd45β/MKK7 interaction. This library contained a total of 12^4=20,736 different tetrapeptides formed by combinations of the following amino acid residues Gln (Q), Ser (S), Arg (R), Ala (A), Tyr (Y), Pro (P), Met (M), Cys (C), Phe (F), Leu (L), His (H), Asp (D), and was iteratively deconvoluted in four steps by ELISA competition assays using at each step coated MKK7 (42 nM), soluble-biotin-hGadd45β (21 nM) and each of the 12 sub-libraries (42 nM).

| Molecule | % Inhibition of Gadd45β-MKK7 binding |
| --- | --- |
| Fmoc(βAla)2-YDHR-NH2 ({Fmoc-βAla-βAla}-YDHR-NH2; SMILES N=C(N)NCCC[C@H](NC(=O)[C@H](Cc1c[nH]cn1)NC(=O)[C@H](CC(=O)O)NC(=O)[C@H](Cc1ccc(O)cc1)NC(=O)CCNC(=O)CCNC(=O)OCC1c2ccccc2-c2ccccc21)C(N)=O) | 2% |
| Fmoc(βAla)2-YDHS-NH2 ({Fmoc-βAla-βAla}-YDHS-NH2; SMILES NC(=O)[C@H](CO)NC(=O)[C@H](Cc1c[nH]cn1)NC(=O)[C@H](CC(=O)O)NC(=O)[C@H](Cc1ccc(O)cc1)NC(=O)CCNC(=O)CCNC(=O)OCC1c2ccccc2-c2ccccc21) | 0% |
| Fmoc(βAla)2-YDHA-NH2 ({Fmoc-βAla-βAla}-YDHA-NH2; SMILES C[C@H](NC(=O)[C@H](Cc1c[nH]cn1)NC(=O)[C@H](CC(=O)O)NC(=O)[C@H](Cc1ccc(O)cc1)NC(=O)CCNC(=O)CCNC(=O)OCC1c2ccccc2-c2ccccc21)C(N)=O) | 15% |
| Fmoc(βAla)2-YDHC-NH2 ({Fmoc-βAla-βAla}-YDHC-NH2; SMILES NC(=O)[C@H](CS)NC(=O)[C@H](Cc1c[nH]cn1)NC(=O)[C@H](CC(=O)O)NC(=O)[C@H](Cc1ccc(O)cc1)NC(=O)CCNC(=O)CCNC(=O)OCC1c2ccccc2-c2ccccc21) | 44% |
| Fmoc(βAla)2-YDHL-NH2 ({Fmoc-βAla-βAla}-YDHL-NH2; SMILES CC(C)C[C@H](NC(=O)[C@H](Cc1c[nH]cn1)NC(=O)[C@H](CC(=O)O)NC(=O)[C@H](Cc1ccc(O)cc1)NC(=O)CCNC(=O)CCNC(=O)OCC1c2ccccc2-c2ccccc21)C(N)=O) | 33% |

same assay, conditions: Table II, modified pure peptides

| Molecule | % Inhibition of Gadd45β-MKK7 binding |
| --- | --- |
| Ac-YDRW-NH2 | 43% |
| Ac-WDKW-NH2 | 69% |
| Ac-WDHW-NH2 | 50% |

Continued, values first:

| % Inhibition of Gadd45β-MKK7 binding | Molecule |
| --- | --- |
| 27% | Ac-YEKW-NH2 |
| 26% | Ac-WDKF-NH2 |
| 58% | Ac-YDHW-NH2 |
| 93% | Ac-YERF-NH2 |
| 65% | Ac-WEKW-NH2 |

same assay, conditions: Table III, modified peptides

| Molecule | % Inhibition of Gadd45β-MKK7 binding |
| --- | --- |
| Ac-YERFLys(Z)-NH2 (Ac-YERFK(Cbz)-NH2; SMILES CC(=O)N[C@@H](Cc1ccc(O)cc1)C(=O)N[C@@H](CCC(=O)O)C(=O)N[C@@H](CCCNC(=N)N)C(=O)N[C@@H](Cc1ccccc1)C(=O)N[C@@H](CCCCNC(=O)OCc1ccccc1)C(N)=O) | 6% |
| Fmoc-YDFQ-NH2 (SMILES NC(=O)CC[C@H](NC(=O)[C@H](Cc1ccccc1)NC(=O)[C@H](CC(=O)O)NC(=O)[C@H](Cc1ccc(O)cc1)NC(=O)OCC1c2ccccc2-c2ccccc21)C(N)=O) | 19% |
| Myr-YDHF-NH2 (Myristoyl-YDHF-NH2) | 26% |
| Benzoic acid-YERF-NH2 | 24% |
| Fmoc-YERF-NH2 | 60% |
| 2CI-Z-YDHF-NH2 (ClZ-YDHF-NH2) | 38% |
| Ac-PERF-NH2 | 24% |
| Ac-YDHFLys(Z)-NH2 (Ac-YDHFK(Cbz)-NH2; SMILES CC(=O)N[C@@H](Cc1ccc(O)cc1)C(=O)N[C@@H](CC(=O)O)C(=O)N[C@@H](Cc1c[nH]cn1)C(=O)N[C@@H](Cc1ccccc1)C(=O)N[C@@H](CCCCNC(=O)OCc1ccccc1)C(N)=O) | 8% |

same assay, conditions: Table V, FIG. 3C; read-out: IC50 ELISA

| IC50 | Molecule |
| --- | --- |
| > 5 nM | N=C(N)NCCC[C@@H](NC(=O)[C@@H](CCC(=O)O)NC(=O)[C@@H](Cc1ccc(O)cc1)NC(=O)[C@@H](Cc1ccc(O)cc1)NC(=O)OCc1ccccc1)C(=O)N[C@H](Cc1ccccc1)C(N)=O [Compound 22, Z-Tyr-Tyr-Glu-Arg-Phe-NH2] (Cbz-[dY][dY][dE][dR][dF]-NH2) |

same assay, conditions: result in words

| inhibition of Gadd45β/MKK7 complex formation in ELISA competition assays | Molecule |
| --- | --- |
| IC50s similar to those of DTPs | Ac-YERF-NH2 |
